# Data from FireProtDB (doi:10.1021/bi00118a013).
# B1: Guanyl-specific ribonuclease T1 wild type, P00651 (protein)
# chain: MMYSKLLTLTTLLLPTALALPSLVERACDYTCGSNCYSSSDVSTAQAAGYQLHEDGETVGSNSYPHKYNNYEGFDFSVSSPYYEWPILSSGDVYSGGSPGADRVVFNENNQLAGVITHTGASGNNFVECT
# Conditions: Aspergillus oryzae (strain ATCC 42149 / RIB 40), pH 7, Fluorescence, MOPS 30 mM, reversible: yes, whole UniProt chain shown
protein,measurement,setting,value
B1,denaturant m value,"25 °C, Urea",1.21 kcal/mol/M
same,denaturant midpoint (higher = more stable),"25 °C, Urea",5.3 M
same,Tm,Thermal,50.9 °C
same,unfolding enthalpy (van 't Hoff),Thermal,110 kcal/mol
